Our source for the EC50 values is patent US11819553B2, “Glypican 3 antibodies and conjugates thereof” (Seagen Inc., priority 2018, dated 2023).

A value given as a limit tells only on which side of the number the result lay.

For the test, the target named is T1, hGPC3 (Homo sapiens, UniProt P51654).
T1 construct: endogenous in cells
The test can be described thus: Competition binding assay on GPC3-positive cells (flow cytometry, AlexaFluor-488 labeled mGPC3-1). As to conditions: Table 6; competition with labeled mGPC3-1 on GPC3-positive cells; read-out: hGPC3 Binding of hGPC3-1 Antibody Variants EC50. The procedure:
One hundred thousand GPC3-positive cells were transferred to 96-well plates and incubated for 1 hour on ice with 3-5 nM AlexaFluor-488 labeled mGPC3-1 and increasing concentrations (from 10 pM to 2 uM) of unlabeled humanized or murine GPC3-1 mAb. Cells were centrifuged, washed 3 times with PBS, and resuspended in 125 μL of a PBS+2% FBS solution. Fluorescence was analyzed using a flow cytometer, and the percent of saturated fluorescent signal was used to determine percent labeled GPC3-1 mAb bound. The EC50 was extrapolated by fitting the data to a sigmoidal dose-response curve with variable slope.
(In general: In flow cytometry, cells or beads pass a laser one at a time.)

T1 sequence (P51654 25-554): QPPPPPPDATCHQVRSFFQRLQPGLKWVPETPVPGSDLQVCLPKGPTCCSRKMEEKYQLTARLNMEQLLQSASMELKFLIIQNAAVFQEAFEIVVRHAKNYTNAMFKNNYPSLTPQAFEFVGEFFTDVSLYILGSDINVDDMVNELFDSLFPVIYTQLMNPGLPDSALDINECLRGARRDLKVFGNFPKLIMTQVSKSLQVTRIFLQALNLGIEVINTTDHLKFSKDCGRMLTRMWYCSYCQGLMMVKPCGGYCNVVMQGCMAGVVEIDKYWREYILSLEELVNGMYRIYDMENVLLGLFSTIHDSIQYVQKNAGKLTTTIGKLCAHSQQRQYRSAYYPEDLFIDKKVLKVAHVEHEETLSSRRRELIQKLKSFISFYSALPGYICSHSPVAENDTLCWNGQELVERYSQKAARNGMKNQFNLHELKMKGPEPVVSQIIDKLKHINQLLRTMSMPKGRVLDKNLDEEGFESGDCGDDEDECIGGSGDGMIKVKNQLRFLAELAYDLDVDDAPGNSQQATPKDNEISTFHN

B1: hGPC3-1 HALA: humanized GPC3-1 antibody with heavy chain variable region vHA and light chain variable region vLA (antibody, V domains shown)
VH: QVQLVQSGAEVKKPGASVKVSCKASGYTFTDYEMHWVRQAPGQGLEWIGGIDPETGGTAYNQKFKGRATLTADTSTSTAYMELRSLRSDDTAVYYCARYYSFAYWGQGTLVTVSS
VL: DVVMTQSPLSLPVTLGQPASISCRSSQSIVHSNGNTYLQWFQQRPGQSPRRLIYKVSNRFSGVPDRFSGSGSGTDFTLKISRVEAEDVGVYYCFQVSHVPYTFGQGTKLEIK
The EC50 is the midpoint of the concentration-response curve. For B1, the EC50 is > 300 nM.
